T1: GFP-9S library array, motif 4 ND N98A (synthetic construct, N98A)
T1 chain: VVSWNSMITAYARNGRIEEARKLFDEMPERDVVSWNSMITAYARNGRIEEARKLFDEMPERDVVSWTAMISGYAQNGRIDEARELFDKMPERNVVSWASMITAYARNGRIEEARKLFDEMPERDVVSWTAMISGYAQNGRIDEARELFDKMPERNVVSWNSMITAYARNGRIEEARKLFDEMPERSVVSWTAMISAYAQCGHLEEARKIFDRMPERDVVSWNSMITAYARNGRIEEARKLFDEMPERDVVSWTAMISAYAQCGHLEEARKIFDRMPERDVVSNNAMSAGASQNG

T2: GFP-9S library array, motif 4 ND N98Q;D124K (synthetic construct, N98Q;D124K)
T2 chain: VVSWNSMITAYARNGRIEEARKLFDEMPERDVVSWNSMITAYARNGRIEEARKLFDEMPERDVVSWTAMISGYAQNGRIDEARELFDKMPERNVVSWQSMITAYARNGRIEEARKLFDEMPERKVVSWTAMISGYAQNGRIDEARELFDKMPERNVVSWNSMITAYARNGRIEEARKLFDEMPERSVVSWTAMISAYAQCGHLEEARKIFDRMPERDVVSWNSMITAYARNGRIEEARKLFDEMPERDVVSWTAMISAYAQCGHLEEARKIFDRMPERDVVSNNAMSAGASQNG

T3: GFP-9S library array, motif 4 ND N98A;D124Y (synthetic construct, N98A;D124Y)
T3 chain: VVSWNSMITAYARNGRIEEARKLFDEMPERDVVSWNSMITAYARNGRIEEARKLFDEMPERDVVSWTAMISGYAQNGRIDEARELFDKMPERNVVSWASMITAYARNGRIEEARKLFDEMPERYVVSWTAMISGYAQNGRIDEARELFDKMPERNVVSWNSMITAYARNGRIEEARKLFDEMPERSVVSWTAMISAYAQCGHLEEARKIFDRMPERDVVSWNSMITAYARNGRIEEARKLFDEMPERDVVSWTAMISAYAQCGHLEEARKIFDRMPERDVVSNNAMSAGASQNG

T4: GFP-9S library array, motif 4 ND N98G;D124W (synthetic construct, N98G;D124W)
T4 chain: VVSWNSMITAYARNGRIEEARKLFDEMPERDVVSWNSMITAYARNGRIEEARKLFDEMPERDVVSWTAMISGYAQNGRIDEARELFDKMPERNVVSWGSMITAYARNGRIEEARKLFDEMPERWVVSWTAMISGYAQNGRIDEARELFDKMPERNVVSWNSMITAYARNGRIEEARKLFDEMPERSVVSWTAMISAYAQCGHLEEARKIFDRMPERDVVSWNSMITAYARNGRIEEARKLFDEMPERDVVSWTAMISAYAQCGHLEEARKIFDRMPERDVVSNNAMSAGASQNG

T5: GFP-9S library array, motif 4 ND N98K;D124P (synthetic construct, N98K;D124P)
T5 chain: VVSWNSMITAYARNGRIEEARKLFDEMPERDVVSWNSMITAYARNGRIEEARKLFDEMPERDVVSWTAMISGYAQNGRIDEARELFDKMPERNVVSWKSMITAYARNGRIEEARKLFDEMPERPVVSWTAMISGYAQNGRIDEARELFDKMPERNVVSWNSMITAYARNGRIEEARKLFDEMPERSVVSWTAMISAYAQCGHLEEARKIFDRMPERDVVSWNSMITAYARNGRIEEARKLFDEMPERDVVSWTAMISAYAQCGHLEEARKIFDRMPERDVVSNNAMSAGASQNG


Assays:
Assay in all cases: high-throughput RNA pulldown from lysate on Ni-NTA beads; HRP: 50 mM Tris pH 8, 150 mM NaCl, 1 mM beta-mercaptoethanol, 50 ug/ml BSA, 3 ug/ml yeast RNA, 0.5% heparin; ITC and FP: Tris pH 8, 200 mM KCl, 5% glycerol; MST: 50 mM Tris pH 8, 200 mM NaCl, 1 mM DTT, BSA, heparin, 0.05% Tween 20
Conditions in all cases: tags: N-terminal His-eGFP
[1] = molecular target: T1, GFP-9S library array, motif 4 ND N98A
[2] = molecular target: T2, GFP-9S library array, motif 4 ND …
[3] = molecular target: T3, GFP-9S library array, motif 4 ND …
[4] = molecular target: T4, GFP-9S library array, motif 4 ND …
[5] = molecular target: T5, GFP-9S library array, motif 4 ND …

Row | Binder | Kd ([1]; label: 5' Cy5) | Kd ([2]; label: 5' Cy5) | Kd ([3]; label: 5' Cy5) | Kd ([4]; label: 5' Cy5) | Kd ([5]; label: 5' Cy5) | Kd ([1]; label: 5' IRDye 800CW) | Kd ([2]; label: 5' IRDye 800CW) | Kd ([3]; label: 5' IRDye 800CW) | Kd ([4]; label: 5' IRDye 800CW) | Kd ([5]; label: 5' IRDye 800CW)
1 | AUUACACGUGA (ssRNA) [Cy5-rpoA] | 194 nM | 91.3 nM | 82.5 nM | 49.7 nM | 107 nM | – | – | – | – | –
2 | AUUAUACGUGA (ssRNA) [IR-rpoA-U] | – | – | – | – | – | 50.8 nM | 159 nM | 175 nM | 67 nM | 76.4 nM
3 | AUUAGACGUGA (ssRNA) [Cy5-rpoA-G] | 156 nM | 109 nM | 68.5 nM | 69.1 nM | 105 nM | – | – | – | – | –
4 | AUUAAACGUGA (ssRNA) [IR-rpoA-A] | – | – | – | – | – | 223 nM | 257 nM | 172 nM | 74.5 nM | 194 nM

Reference: paper PMC8809517, “Cofactor-independent RNA editing by a synthetic S-type PPR protein”
